Data taken from the supplement of paper PMC9170038.

Tested on: MS2 coat protein
Assay: apparent KD of MS2 coat protein; designed switch direction (-1 OFF switch, 1 ON switch): -1; higher = weaker reporter binding
Method in brief: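 SNAP-549-labelled MS2 coat protein was titrated, doubling from 0.7 or 1.5 nM to 3 µM, over designed RNA switches transcribed on Illumina chips by stalled E. coli RNA polymerase. Runs were done without input, with 200 uM small-molecule ligand, or with an oligonucleotide input. Apparent KD is the per-design median over clusters of curve-fitted normalised fluorescence.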

[1] = Eterna round: R95, input ligand: FMN 200 uM
[2] = Eterna round: R95, input ligand: microRNA oligo, concentration not stated
[3] = Eterna round: R95, input ligand: none
[4] = input ligand: microRNA oligo, concentration not stated

Sequence | apparent KD of MS2 coat protein [1] [nM] | apparent KD of MS2 coat protein [2] [nM] | apparent KD of MS2 coat protein [3] [nM] | apparent KD of MS2 coat protein (input ligand: FMN 200 uM) [nM] | apparent KD of MS2 coat protein (input ligand: none) [nM] | apparent KD of MS2 coat protein [4] [nM]
AGUACUAACACGGGAGUGUUAGUACAAUAAGCUUGUGAAACAUGAGGAUCACCCAUGUCCUCAUAAGCUCGUCUUAU [salish99_TOv2_r3_060] (puzzle: Sensor v3, turn-off variant 2) | 16.6 | 717 | 13.8 |  |  | 
CUUUUGUGAGGAUAUUAGUAGUUUAUAAUUAAAAUUAUUACUGAGAAGGCACAUGAGGAUCACCCAUGUAAAAC [JR_Ex4_Sub029] (Eterna round: R97, puzzle: Exclusion 4) |  |  |  | 122 | 104 | 
UGAGCUUACGUAGGAUAUGAGGAUCACCCAUAGAAGGAUAUCGAAAGAGAAGGUCUGAGGAUUACCCAGAAGGACGUGGGCUCU [pwkr exNG2 2xF5 2xFMN.12] (Eterna round: R96, puzzle: Exclusion NG 2) |  |  |  | 732 | 151 | 122
UUUAUGUCAGGAUAUGAUUAGAUCUACUUUUGUAGAUCUAAUCAGAAGGGACAUGAGGAUCACCCAUGUAGUUU [Ex4 - 3 - 14] (puzzle: Exclusion 4) |  | 116 |  |  |  | 
CAGUACUGAGGAUAUACAUGAGGAUCACCCAUGUGUGUGAGUUUUGUAUGAAUGUUAUGUAGAAGGCGGUGCUG [JR_Ex3_Sub034] (Eterna round: R97, puzzle: Exclusion 3) |  |  |  | 285 | 504 | 
UGCCGUUGAGGAUAUACAUUGAAUUUGAUUCAUGUAAAACUACAUGAGGAUCACCCAUGUAGAAGGCAAUGGCU [Mat - Exclusion 2 - JL Mod - D63] (Eterna round: R97, puzzle: Exclusion 2) |  |  |  | 25.7 | 21.3 | 
UGUAUACAUGAGGAUCACCCAUGUAAGGAUAUACAUCAGAUCGACACCGGACUGGCCCGUAGAAGGUGCGUGGA [Eternabot (L2) Solution 67] (Eterna round: R97, puzzle: Exclusion 1) |  |  |  | 24.9 | 24 | 
GACUUCCGAGGAUAUACAUGAGGAUCACCCAUGUGCUUCAGCAUUUUUUGAUGCAUGGGUAGAAGGCGGUAGUU [LRO-Excl3-16] (puzzle: Exclusion 3) |  | 226 |  |  |  | 
AGCGUGGAGACAGGAUAUGAGAAUAGAUAGAACUCAGAAGGGUCACAUGAGGAUCACCCAUGUAAAGUCUUGAGGCUGAGUGGU [Prohibition 6 - Jieux - Exclusion NG 1] (Eterna round: R96, puzzle: Exclusion NG 1) |  |  |  | 153 | 45.2 | 36.4
CUGAACCCGGUAGGAUAUAUUGUGGGCAAGCAUGGAACGACAUGAGGAUCACCCAUGUAAUUUAGGUAGAAGGGCCGAGAGAUU [Excl-NG2-LRO11] (Eterna round: R96, puzzle: Exclusion NG 2) |  |  |  | 70.7 | 67.3 | 66.3
GCACUGACAGGAUAUACAUGAGGAUCACCCAUGUGACCCUUGGAGUACUCGCGUACUCGUAGAAGGGUCUGUGC [Omei Ex3 Model Bachelor's Dilema v37] (Eterna round: R97, puzzle: Exclusion 3) |  |  |  | 95.8 | 35.9 | 
UACAAGCUUUAAAGAUCCUACAUGAGGAUCACCCAUGUGCUCGUCUUAUAACGUACUGUGACGAAAGUCACGGUACG [JL TOV1 3.20] (Eterna round: R97, puzzle: Sensor, turn-off variant 1) |  |  |  | 200 | 246 | 
UAUUUGCAAGGAUAUGAUUUAAGUAACAUGAGGAUCACCCAUGUUUUUCCGUUGUUAUGUUCAGAAGGUGCGUGAU [JR_E5_Sub020] (puzzle: Exclusion 5) |  | 50.9 |  |  |  | 
GUCACAUGGACAUAGGAUCACAUGAGGAUCACCCAUGUGACUAACAAGCUUUUUGUUCGUCUUAUGUCUAUGUGAAU [Stov1/16-B2] (Eterna round: R97, puzzle: Sensor, turn-off variant 1) |  |  |  | 13.2 | 12.3 | 
UCUAGUUGGCAAGGAUAUCCUACAUUGUUCUGGCCCGGGCAUGCUACAUGAGGAUCACCCAUGUGGGAGAAGGUGCGUCAUUGC [Design 22] (Eterna round: R96, puzzle: Exclusion NG 2) |  |  |  | 70.9 | 82.1 | 50.5
AGCCAAGCAGGAUAUGCCCGGGAUAACAUGAGGAUCACCCAUGUGACCGAUUGAUGUCCUGCAGAAGGGCUUGGGA [Erxesoan] (puzzle: Exclusion 5) |  | 15.8 |  |  |  | 
CAGCCUUGAGUUAGGAUAUGCGAUCGUGUAGACGAGCAGAAGGGACAUGAGGAUCACCCAUGUGAAAUAAUUAA [Begeti] (puzzle: Brourd's mod of Exclusion 4) | 18.3 | 13.2 | 13.4 |  |  | 
UUUUCUUUUGUGAGGAUAUACUUCUUUUUCUUUUUGUAGAAGGCACAUGAGGAUCACCCAUGUUUUCUUUUCUC [JR_BME4_Sub028] (puzzle: Brourd's mod of Exclusion 4) |  | 13.7 |  |  |  | 

Sequence | apparent KD of MS2 coat protein [1] [nM] | apparent KD of MS2 coat protein [2] [nM] | apparent KD of MS2 coat protein [3] [nM] | apparent KD of MS2 coat protein (input ligand: FMN 200 uM) [nM] | apparent KD of MS2 coat protein (input ligand: none) [nM] | apparent KD of MS2 coat protein [4] [nM]
UCGUUUUUUGAGGAUAUGCGACGUUCCUUCGUCGUAGAAGGCGAUACAUGAGGAUCACCCAUGUUUAUGGGCAU [LRO-Ex6-16] (puzzle: Exclusion 6) |  | 109 |  |  |  | 
GGAUGUUCAGAGGAUAUCGAUCCCGAGACCGGGCGAGAAGGUUGAACAUGAGGAUCACCCAUGUGAGGCCUAAC [Cebezais] (Eterna round: R97, puzzle: Exclusion 6) |  |  |  | 38.5 | 12.7 | 
AGUACUAACACGAAAGUGUUAGUAAAAUAAGCUUGUGGUACAUGAGGAUCACCCAUGUCCUCAUAAGCUCGUCUUAU [Mat - Sensor v3 - Turn-off var 2 - D42] (puzzle: Sensor v3, turn-off variant 2) | 21.6 | 78.8 | 20.6 |  |  | 
UGCCGUUGAGGAUAUACGUAGAAAUAGAUUCAUGUAAAACUACAUGAGGAUCACCCAUGUAGAAGGCAAUGGCU [Mat - Exclusion 2 - JL Mod - D47] (Eterna round: R97, puzzle: Exclusion 2) |  |  |  | 221 | 24.4 | 
UAAUUAAAUGUAGGAUAUCUGCACGAUUAGUGCAGAGAAGGACAUGAGGAUCACCCAUGUAGAUCAAAUUAAAUUAAUUUAAUU [ENG1/5-D1] (Eterna round: R96, puzzle: Exclusion NG 1) |  |  |  | 92.2 | 33.8 | 24.5
CUAUGAGCUGAGGAUAUCUGCAGGUUGGGCCUGGGAGAAGGCGGCACAUGAGGAUCACCCAUGUGACCGAAAUA [Mod2 Ex6 A.17 by Nando] (Eterna round: R97, puzzle: Exclusion 6) |  |  |  | 16.3 | 12.7 | 
CAUACACAUGAGGAUCACCCAUGUGAGGAUAUGCGUACGUUGUCCGUAGGCGACGUGCGCAGAAGGCGCAUGAG [JL-ex1-3.13 Eli mod] (puzzle: Exclusion 1) | 27.6 | 90.9 | 91.6 |  |  | 
CGAUCGGAAGGAUAUACACCUCACGUCAAACGGACAACCGGACAUGAGGAUCACCCAUGUAGAAGGUCCAAAAU [Tetixeve] (puzzle: Exclusion 2) |  | 55.7 |  |  |  | 
UUUACAAGCUUUAGAUCCCACAUGAGGAUCACCCAUGUUGCUGCCGGUGACGGUAGCAUAACUAAUGCUCGUCUUAU [JL TOV1 3.62] (Eterna round: R97, puzzle: Sensor, turn-off variant 1) |  |  |  | 123 | 235 | 
ACAUGAGGAUCACCCAUGUGCACGUAAUGGCUCAUGUAGAGUGAGGAUAUGUGUGACGAACGAGCACAGAAGGCACAAGACUGG [Deportation 13 - Jieux - Exclusion NG 3] (Eterna round: R96, puzzle: Exclusion NG 3) |  |  |  | 116 | 97.4 | 67.3
UAAUGUGCGAGAGGAUAUCGUGUACAAAGUACACGAGAAGGCUUCACAUGAGGAUCACCCAUGUACCGAGGUGAAACACCUUGG [Omei Exc(NG)1 Bv1] (Eterna round: R96, puzzle: Exclusion NG 1) |  |  |  | 355 | 220 | 171
UGGUCACAUGAGGAUCACCCAUGUCAGGAUAUCUACAUUGAAGCUGCGGCUUCAAUGUAGAGAAGGGACAUAAU [E1/7-B3] (Eterna round: R97, puzzle: Exclusion 1) |  |  |  | 314 | 272 | 
ACCCUAAUCGUGAGGAUAUACUGCGUCAAAGACGGGUAGAAGGUACAUGAGGAUCACCCAUGUUUGGCUACUAA [Eternabot (L2) Solution 48] (Eterna round: R97, puzzle: Brourd's mod of Exclusion 4) |  |  |  | 28.3 | 27.7 | 
UAGAUGCUCAGGGAGUGUGACAUGAGGAUCACCCAUGUGGUGGUAGGGAACAAGCUUUUUGCACGUACUUAUGAGUA [JR_SV3TOV1_Sub007] (puzzle: Sensor v3, turn-off variant 1) | 64.9 | 18.3 | 117 |  |  | 
UGCAGACGAGGAUAUAAAUGAUAUAACAUGAGGAUCACCCAUGUACGAUCGAAUGAUCGUUUAGAAGGCGUCUGCU [E5/11-A3] (Eterna round: R97, puzzle: Exclusion 5) |  |  |  | 14.1 | 15.5 | 
GGUGGACAUGAGGAUCACCCAUGUGAGGAUAUCGGCUGGUACGUGUUGGCUGGCAUCUCGAGAAGGCACAUAGU [Exclusion 1 V61] (puzzle: Exclusion 1) |  | 58.8 |  |  |  | 
UCCGUGUCAGGAUAUGCUAGCGCAAAGUUGCCCGCGCUGUAGCAGAAGGGACAUGAGGAUCACCCAUGUCUACA [Exclusion 4 (Mod of Nando's EX4 C.10 cleaner dot)] (Eterna round: R97, puzzle: Exclusion 4) |  |  |  | 70.7 | 20.4 | 
